Results as given in US20220127355A1 (INTEGRAL MOLECULAR, published 2022).

T1: Claudin 6 (human) (human, UniProt P56747 1-220)
T1 construct: Expressed on transfected HEK-293T cells or naturally on PA-1 cells for flow cytometry; For the Octet KD values it was the intact protein embedded in virus-like particles (lipoparticles); also called hsCLDN6; CLDN6
T1 chain: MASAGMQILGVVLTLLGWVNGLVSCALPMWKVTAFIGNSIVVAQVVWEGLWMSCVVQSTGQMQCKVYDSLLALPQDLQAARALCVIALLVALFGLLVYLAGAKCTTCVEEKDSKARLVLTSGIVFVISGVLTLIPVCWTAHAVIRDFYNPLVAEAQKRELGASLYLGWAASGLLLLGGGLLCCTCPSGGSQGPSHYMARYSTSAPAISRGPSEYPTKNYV

T2: Q156L
T2 construct: Shotgun Mutagenesis mutant; also called Claudin 6 Q156L
T2 chain: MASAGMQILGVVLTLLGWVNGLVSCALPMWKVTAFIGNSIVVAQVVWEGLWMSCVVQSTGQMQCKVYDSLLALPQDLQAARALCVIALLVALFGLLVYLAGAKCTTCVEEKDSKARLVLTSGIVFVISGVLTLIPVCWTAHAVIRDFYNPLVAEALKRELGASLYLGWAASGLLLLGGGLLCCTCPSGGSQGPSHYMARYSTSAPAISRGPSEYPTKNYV

T3: A153S
T3 construct: Shotgun Mutagenesis mutant; also called Claudin 6 A153S
T3 chain: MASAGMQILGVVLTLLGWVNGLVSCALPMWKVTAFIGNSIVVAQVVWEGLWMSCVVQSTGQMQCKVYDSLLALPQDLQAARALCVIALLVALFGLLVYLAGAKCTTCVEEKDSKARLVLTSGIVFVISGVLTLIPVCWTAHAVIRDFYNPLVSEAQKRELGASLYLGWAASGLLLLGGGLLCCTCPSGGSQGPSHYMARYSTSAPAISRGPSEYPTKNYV

T4: D68A
T4 construct: Shotgun Mutagenesis mutant; also called Claudin 6 D68A
T4 chain: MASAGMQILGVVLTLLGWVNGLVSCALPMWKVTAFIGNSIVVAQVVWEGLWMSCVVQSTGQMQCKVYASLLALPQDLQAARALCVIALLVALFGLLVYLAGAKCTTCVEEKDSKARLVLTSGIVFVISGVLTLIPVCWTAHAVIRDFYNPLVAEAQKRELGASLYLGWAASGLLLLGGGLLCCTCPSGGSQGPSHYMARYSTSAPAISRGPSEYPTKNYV

T5: Q156A
T5 construct: Shotgun Mutagenesis mutant; also called Claudin 6 Q156A
T5 chain: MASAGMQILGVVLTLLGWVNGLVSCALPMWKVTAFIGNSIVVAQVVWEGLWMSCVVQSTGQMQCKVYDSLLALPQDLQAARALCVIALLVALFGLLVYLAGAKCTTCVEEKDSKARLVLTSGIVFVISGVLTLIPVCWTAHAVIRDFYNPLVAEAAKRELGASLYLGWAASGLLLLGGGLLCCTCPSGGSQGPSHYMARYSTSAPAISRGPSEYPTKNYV

T6: V45A
T6 construct: Shotgun Mutagenesis mutant; also called Claudin 6 V45A
T6 chain: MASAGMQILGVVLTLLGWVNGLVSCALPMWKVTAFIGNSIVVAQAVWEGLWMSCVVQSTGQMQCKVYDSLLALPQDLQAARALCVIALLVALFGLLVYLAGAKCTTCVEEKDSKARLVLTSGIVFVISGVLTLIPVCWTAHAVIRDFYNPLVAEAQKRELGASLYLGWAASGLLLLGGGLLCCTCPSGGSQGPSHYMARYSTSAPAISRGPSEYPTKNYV

T7: P74A
T7 construct: Shotgun Mutagenesis mutant; also called Claudin 6 P74A
T7 chain: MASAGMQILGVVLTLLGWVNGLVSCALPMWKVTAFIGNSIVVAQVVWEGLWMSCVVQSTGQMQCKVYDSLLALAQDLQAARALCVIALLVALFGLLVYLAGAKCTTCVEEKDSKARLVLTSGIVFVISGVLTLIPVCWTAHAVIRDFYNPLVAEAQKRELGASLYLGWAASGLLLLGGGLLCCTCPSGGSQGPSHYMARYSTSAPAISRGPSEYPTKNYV

T8: Q78A
T8 construct: Shotgun Mutagenesis mutant; also called Claudin 6 Q78A
T8 chain: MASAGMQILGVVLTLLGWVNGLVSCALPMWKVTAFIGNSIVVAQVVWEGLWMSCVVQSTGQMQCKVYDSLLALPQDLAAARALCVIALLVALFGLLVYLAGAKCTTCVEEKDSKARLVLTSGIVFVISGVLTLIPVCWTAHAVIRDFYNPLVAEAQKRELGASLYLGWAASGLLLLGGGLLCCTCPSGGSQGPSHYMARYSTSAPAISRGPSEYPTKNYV

T9: Y67A
T9 construct: Shotgun Mutagenesis mutant; also called Claudin 6 Y67A
T9 chain: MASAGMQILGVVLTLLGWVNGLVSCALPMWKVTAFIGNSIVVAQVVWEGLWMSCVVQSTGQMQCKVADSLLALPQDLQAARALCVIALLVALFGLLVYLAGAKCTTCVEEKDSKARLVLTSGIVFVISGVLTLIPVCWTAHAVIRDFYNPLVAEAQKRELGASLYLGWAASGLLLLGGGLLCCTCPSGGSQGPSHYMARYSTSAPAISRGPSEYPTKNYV


What was measured:
[1] = molecular target: T1, Claudin 6 (human); experiment: biosensor (Forte Octet), intact claudin in virus-like particles (lipoparticles)
Protocol: Affinity of various antibodies against CLDN6 as compared to CLDN9, CLDN3, and CLDN4 was measured using a biosensor. Biosensor affinity measurement of the various antibodies against the proteins was determined using a Forte Octet, which was used for biosensor measurements, using intact claudin proteins embedded in virus-like particles (lipoparticles). The KD for different antibodies is shown below.

[2] = molecular target: T2, Q156L; experiment: Shotgun Mutagenesis epitope mapping; mean (range), % of wild-type Claudin 6
[3] = molecular target: T3, A153S; experiment: as above
[4] = molecular target: T4, D68A; experiment: as above
[5] = molecular target: T5, Q156A; experiment: as above
[6] = molecular target: T6, V45A; experiment: as above
[7] = molecular target: T7, P74A; experiment: as above
[8] = molecular target: T8, Q78A; experiment: as above
[9] = molecular target: T9, Y67A; experiment: as above

Binder | Kd [1] [nM] | Binding Reactivity (% WT) [2] [% WT] | Binding Reactivity (% WT) [3] [% WT] | Binding Reactivity (% WT) [4] [% WT] | Binding Reactivity (% WT) [5] [% WT] | Binding Reactivity (% WT) [6] [% WT] | Binding Reactivity (% WT) [7] [% WT] | Binding Reactivity (% WT) [8] [% WT] | Binding Reactivity (% WT) [9] [% WT]
IM173 (antibody, V domains shown, Detected with anti-human IgG Fc secondary) VH: AVTLDESGGGLQTPGGALSLVCKASGFTFSSYSMFWVRRAPGKGLEWVAGIDSGSTTFYGSAVKGRATISRDNGQSTVRLQLNNLRAEDTATYYCAKDAYGYCGWSGCSADSIDAWGHGTEVIVSS VL: ALTQPSSVSANPGGTVEITCSGGNNYYGWYQQKSPGSAPVTVIYYNDKRPSDIPSRFSGSKSGSTGTLTITGVQADDEAVYFCGGWDSSGGIFGAGTTLTVL | 0.32 | 10.7 | 113 | 89.6 | 0.9 | 76.1 | 147 | 144 | 28.8
IM171 (antibody, V domains shown, Detected with anti-human IgG Fc secondary; also called LM171) VH: AVTLDESGGGLQTPGGALSLVCKASGFDFSSYAMNWVRQAPGKGLEWVAGIGSTGSSTGYGPAVKGRATISRDNGQSTLRLQLNNLRAEDTAIYYCAKSVGNGNSWSGYIATSIDAWGHGTEVIVSS VL: ALTQPSSVSANLGGTVKLTCSGGSSGYGWYQQKSPGSAPVTVIYSNDKRPSDIPSRFSGSLSGSTGTLTITGVQADDEAVYFCGSTDNSYVGIFGAGTTLTVL | 3 | 10 | 24 | 93.7 | 102 | 88.4 | 37.5 | 151 | 97.2
